The test system of series [1] is gram-positive spoilage and pathogenic bacteria. Conditions: various foods (dairy, meats and others); cited from earlier work.
The nature of series [2]: Nisin adsorption to silicon wafers measured by ellipsometry (hydrophobic, silanized surface). The format is physicochemical. The source says:
(§1) This example is an investigation of the binding ability of nisin on hydrophilic surfaces and on such surfaces made strongly hydrophobic by silanization. As representative hydrophilic surfaces, we selected monocrystalline silicon because this material is homogeneous, has substantially no pores or surface cavities, and has optical properties amenable to analysis using a laser beam.
(§2) Optically flat, monocrystalline silicon wafers (Wacker Siltronic Corp., Portland, Oreg.) having 1-0-0 orientation and a resistivity of 0.1 to 0.16 ohm.cm were cut into 1×2 cm wafers using a tungsten knife. The wafer surfaces were polished to a mirror finish.
A second quantity of wafers was made hydrophobic by silanization with dichlorodimethylsilane according to Jonsson et al., J. Colloid Interface Sci. 90:148-163 (1982) .
Hydrophilicity and hydrophobicity were confirmed by contact angle analysis according to McGuire, J. Food Eng. 12:239-247 (1990), incorporated herein by reference. In brief, hydrophobicity was determined by measuring the nondispersive component of the work Wa^p required to remove water from a surface, wherein Wa^p is defined according to equation (1) in said McGuire reference. This value was gained using contact-angle methods, and all food-contact surfaces can be analyzed in this way. […] A low value indicates strong hydrophobicity and a high value indicates strong hydrophilicity. […]

A short description of series [3]: Nisin adsorption to silicon wafers measured by ellipsometry (hydrophilic surface). The format is physicochemical. Conditions: hydrophilic silicon wafer; nisin concentration range 0.1 to 1.0 mg/mL.
Excerpt: as §1, §2
A first quantity of wafers was made hydrophilic by oxidation wherein the wafers were immersed in a mixture of NH4 OH:H2 O2 :H2 O (1:1:5) at 80° C. for 15 minutes. The wafers were then rinsed using distilled deionized water followed by an immersion in HCl:H2 O2 :H2 O (1:1:5) for 15 minutes at 80° C. […]
Hydrophilicity and hydrophobicity were confirmed by contact angle analysis according to McGuire, J. Food Eng. […] In brief, hydrophobicity was determined by measuring the nondispersive component of the work Wa^p required to remove water from a surface, wherein Wa^p is defined according to equation (1) in said McGuire reference. This value was gained using contact-angle methods, and all food-contact surfaces can be analyzed in this way. […]

Series [4] deals with Pediococcus pentosaceus strain FBB61-2. The experiment in a line: Bioassay of adsorbed nisin: wafers placed face down on seeded MRS agar, inhibition zones. The format is cell-based. The settings on record: hydrophilic wafers with nisin adsorbed from 0.1 to 1.0 mg/mL solutions, 4° C. 24 hours then 37° C. Here is the method:
The activity of adsorbed nisin was evaluated by a bioassay performed as follows: Petri dishes (150×25 mm) containing MRS agar (Difco, Detroit, Mich.) were seeded with 0.1% v/v of a standardized overnight culture of Pediococcus pentosaceus strain FBB61-2 bacteria. Silicon wafers having hydrophilic surfaces were prepared as described above. Such wafers were prepared with and without adsorbed nisin. Wafers were placed face down directly onto the seeded agar surfaces. The Petri dishes were then incubated at 4° C. for 24 hours, then incubated at 37° C.
Referring to FIG. 2, the silicon wafers numbered 1-10 were subjected to adsorption of nisin from 0.1 to 1.0 mg/mL nisin solutions, respectively (in 0.1 mg/mL increments). […] Qualitatively, it can be seen in FIG. 2 that the amount of nisin antimicrobial activity associated with the nisin-coated wafers (as indicated by the diameters of the respective inhibition zones) corresponds to the mass of nisin that actually adsorbed to the respective wafer as shown in FIG. 1; i.e., the smallest inhibition zone corresponded with the smallest adsorbed mass of nisin.

The test system is the same in series [5]. The experiment in a line: Desorption of nisin from wafers by rinsing, followed by agar-well diffusion assay. In kind it is cell-based. As to the method: Nisin was adsorbed to hydrophilic and hydrophobic silicon wafers as described in example 1. We then attempted to desorb nisin from the wafers by placing 50 μL of 0.01M phosphate buffer (pH 6.0) containing 1% polyoxyethylene sorbitan (Tween 80) on each wafer and "agitating" the droplet over the entire wafer surface using a pipette tip. The 50 μL droplet was then transferred to 5.6-mm diameter wells that had been made in seeded agar. As controls, we also attempted to desorb nisin from nisin-coated wafers using the phosphate buffer without Tween 80.
In FIG. 3, the activity of desorbed nisin (from hydrophilic surfaces) is seen as inhibition zones in the agar-well diffusion assay. The amount of recovered nisin roughly corresponded to the relative mass of nisin initially adsorbed to the wafers, similar to the previously described relationships shown in FIGS. 1 and 2. The only exception was the inhibition zone of well 10, wherein the unusually small diameter of the inhibition zone resulted from most of the desorbed nisin being lost during manipulations.
It should be noted that the amount of nisin that became adsorbed onto the wafer surfaces was an amount sufficient for inhibition of susceptible bacteria. Commonly, about 100 Units/g are used in food products to prevent the outgrowth of gram-positive bacterial spores and vegetative cells. […]
Background: In agar diffusion tests the substance spreads into inoculated agar from a disc or well.

The conditions of series [6]: high-potency grade from Aplin and Barrett Ltd.; cited from earlier work.
For series [7] the following is noted: cited from earlier work.

Where no end group is shown, it is not given here.

In the case of “Pediocin AcH (KYYGNGVTCGKHSCSVDWGKATTCIINNGAMAWATGGHQGNHKC; ends and bridges not checked; cysteine pairing not given here; UniProt P29430 19-62, looked up) [wide-spectrum bacteriocin produced by lactic-acid bacteria, first identified in 1984]”, the “control of gram-positive bacteria in foods” value (“control” for short) in series [1] is “efficacious in controlling a wide range of spoilage and pathogenic gram-positive bacteria”.

For “Pediocin PA1 (KYYGNGVTCGKHSCSVDWGKATTCIINNGAMAWATGGHQGNHKC; ends and bridges not checked; cysteine pairing not given here; UniProt P29430 19-62, looked up) [wide-spectrum bacteriocin produced by lactic-acid bacteria]”, the “control” value in series [1] is listed as “found to control gram-positive bacterial populations”.

On to “nisin (ITSISLCTPGCKTGALMGCNMKTATCHCSIHVSK; ends and bridges not checked; also: five thioether crosslinks (ring bridges), places not given here; UniProt P13068 24-57, looked up)”, for which, in series [2] (hydrophilic and hydrophobic wafers, 12-hour post-adsorption exposure to buffer (FIG. 1 circles)), the “reversal of adsorption in more dilute solution” value is “does not appear to reverse”. Moreover, the “upper limit (plateau) of adsorbed mass of nisin” value in series [2] (hydrophobic (silanized) silicon wafer, pH 6.0 phosphate buffer, 8 hours contact, consistent with a monolayer) is “about 0.36 mg/cm^2”. In addition, the “adsorption plateau on hydrophilic surface” value in series [3] is “did not attain a plateau value”. In addition, the “diameter of inhibition zone around nisin-containing wafers” value in series [4] is “generally proportional to the log10 concentration of the nisin solution”. Besides, in series [5] (0.01M phosphate buffer pH 6.0, no Tween 80), the “desorption by rinsing with phosphate buffer without Tween 80” value is “resistant to desorption”. Further, the “desorption by phosphate buffer containing Tween 80” value in series [5] (0.01M phosphate buffer pH 6.0 with 1% Tween 80) is reported as “able to desorb nisin”. For the same substance, the nominal nisin activity in series [6] was 45.5×10^6 Units/g. For the same substance, the “control” value in series [1] is listed as “effective in preserving these foods”. Further, in series [7] (ambient temperatures (0°-40° C.)), the “period of retained bacteriocidal activity” value is listed as 16-24 months. Also, the “stability of activity at pH 11” value in series [7] (pH 11) is listed as “can be lost rapidly”. Moreover, in series [7] (refrigeration storage), the “potency of purified dry powder on storage” value is reported as “retains its potency indefinitely”.

The values are drawn from patent US5451369A, “Bacteriocidal surfaces and articles with attached bacteriocin” (The State of Oregon Acting By and Through The State Board …, priority 1993, dated 1995).
